This passage reports self-cleavage results from the RNAGym collection of RNA variant scans (doi:10.7554/elife.80360).

The chains are these.
B1: Hairpin Ribozyme (parent)
chain: GUCCUCUUUCACGUGCGCGUGAAAGAGAGAAGUGAACCAGAGAAACACACGUUGUGGUAUAUUACCUGGUA

In the data set the parent is B1. Nature of the data set: self-cleavage, relative activity (ratio to wild type); higher = more cleavage; co-transcriptional.
On to A45U U67A, for which the self-cleavage came to 0.0841. In the case of C46A C65U, the self-cleavage was 0.259. Consider C46A C50G, for which the self-cleavage amounted to 0.159. With C46A C50A, the self-cleavage was 0.117. The result for A47C U55G reads 0.136; that for A45G U63A, 0.124. On to A47C G69C, for which the self-cleavage came to 0.196. The result for A45G U67G reads 0.0311. On to A45U G69C, for which the self-cleavage is 0.0735. Regarding C46U G57A, the self-cleavage amounted to 0.186. For C46U G57C, the self-cleavage was 0.0631.

Turning to C46U G57U, the self-cleavage is 0.234. The result for C46U U67A reads 0.0755; that for C46U U67C, 0.11. With A47C U70C the figure was 0.298. With A45U G68C the figure was 0.202; with C46A C48A, 0.127; with C46A C48G, 0.211. C46A C48U: the self-cleavage is 0.138. As to C46U C65A, the self-cleavage amounted to 0.184. As to C46U U60G, the self-cleavage came to 0.223.

Regarding A45U U53A, the self-cleavage was found to be 0.151. With A45U U53G the figure was 0.263. As to A47G C50U, the self-cleavage worked out at 0.101.

As to A47G, the self-cleavage stood at 0.162. For the variant A47C, the self-cleavage was 0.335.

Turning to C46A A71U, the self-cleavage came to 0.161. The result for C46A U60G reads 0.102; that for C46G U55C, 0.151.

Regarding A47C U60A, the self-cleavage worked out at 0.219.

For A47C U60G, the self-cleavage was found to be 0.324. Regarding A45U C65U, the self-cleavage stood at 0.175. For the variant A45U C48G, the self-cleavage was 0.14. As for C46A C66A, the self-cleavage came out at 0.0901. For the variant C46A C66G, the self-cleavage turned out to be 0.14.

C46A C66U: the self-cleavage was determined as 0.15. The result for A45U C46U reads 0.12; that for A47G A71C, 0.599. For the variant A47G A71U, the self-cleavage turned out to be 0.221. Consider A45U U52C, for which the self-cleavage was 0.103. As to A45U U52G, the self-cleavage came to 0.122.

With C46G C48G, the self-cleavage came to 0.0704.

As for A45G G69C, the self-cleavage worked out at 0.171.

Consider A45G G69U, for which the self-cleavage was 0.141. With A45G G69A, the self-cleavage was 0.117. With A47G C65A the figure was 0.0744. For C46U A59U, the self-cleavage was 0.149. For the variant C46U A59G, the self-cleavage was 0.112. For the variant A45U A59G, the self-cleavage came out at 0.0526. For A45U A59C, the self-cleavage was determined as 0.285. With A45U A59U, the self-cleavage was 0.154.

Turning to A45G C46G, the self-cleavage is 0.181.

In the case of C46U A71U, the self-cleavage was found to be 0.121. With A47C A59C the figure was 0.19; with A47C A59U, 0.112.

As for A45U A47C, the self-cleavage was found to be 0.132. Consider A45U A47G, for which the self-cleavage worked out at 0.178.

A45U A47U: the self-cleavage was 0.0501.

Take A47C G68A: the self-cleavage was found to be 0.268. With A47C G68C the figure was 0.195; with C46A G57A, 0.177. Take A45G G57U: the self-cleavage amounted to 0.175. Consider C46G A64G, for which the self-cleavage was 0.144.

As for C46G A64U, the self-cleavage came out at 0.185. As for C46G A64C, the self-cleavage worked out at 0.152. In the case of C46G U67A, the self-cleavage was determined as 0.094. In the case of A45U G56C, the self-cleavage came out at 0.198.

Regarding C46G A59G, the self-cleavage was determined as 0.185. With C46G A59C, the self-cleavage came out at 0.219. With C46G U62C the figure was 0.249; with C46G U62G, 0.14. With C46A U58C, the self-cleavage was determined as 0.206. Turning to A45U A64G, the self-cleavage is 0.16. With A45U A64U the figure was 0.0728; with A47G C48U, 0.185.

Regarding A45U A71U, the self-cleavage is 0.156. On to A45U A71G, for which the self-cleavage was determined as 0.189. Take A45U A71C: the self-cleavage was 0.286.

Turning to A45G G51U, the self-cleavage amounted to 0.271. As for C46A U62C, the self-cleavage was 0.193. As to C46A A49U, the self-cleavage came to 0.149. With C46A A49G the figure was 0.0498; with C46G G69U, 0.105. The result for A45G U58G reads 0.199; that for A45G G68C, 0.136; that for A45G U60A, 0.105. Consider C46U U70A, for which the self-cleavage was 0.255. As to C46U U70G, the self-cleavage turned out to be 0.189. With A45G U53G the figure was 0.108; with A45G U53C, 0.4; with A47C G54A, 0.208. A45G C48U: the self-cleavage amounted to 0.0892. Regarding A45G C48G, the self-cleavage is 0.113. With C46A U70C the figure was 0.026; with C46A U70A, 0.205; with C46A U70G, 0.0934. With A47C A61C the figure was 0.152; with C46U A61U, 0.267; with A45G C66U, 0.218.

As to C46G A47U, the self-cleavage turned out to be 0.136. In the case of C46G G57A, the self-cleavage came to 0.0965. On to C46G G57C, for which the self-cleavage turned out to be 0.0539.

On to A45G G54A, for which the self-cleavage amounted to 0.218. Take A45G G54U: the self-cleavage worked out at 0.2. With A45G U70A the figure was 0.184; with A45G U70G, 0.137. A47C G56A: the self-cleavage came to 0.233. With C46U G68C the figure was 0.123; with C46U G69A, 0.123; with C46U G69U, 0.172.

On to C46A U53G, for which the self-cleavage is 0.159. Turning to C46A U53A, the self-cleavage worked out at 0.139.

In the case of C46A U53C, the self-cleavage is 0.148.

Consider C46A U52C, for which the self-cleavage is 0.271.

Consider C46A U52G, for which the self-cleavage was 0.119. Consider A47C U62C, for which the self-cleavage amounted to 0.187. Take C46G A49U: the self-cleavage was found to be 0.0713. The result for C46A G69C reads 0.0874. In the case of C46A G69U, the self-cleavage is 0.171. As for C46A A61G, the self-cleavage was determined as 0.0812. Regarding A47C A49U, the self-cleavage came to 0.171.

Regarding A47G A64U, the self-cleavage came to 0.167.

As to C46U U52G, the self-cleavage was 0.197. With A47G A49G, the self-cleavage came to 0.129. With A47G A49C, the self-cleavage is 0.307. Take A47C U52G: the self-cleavage worked out at 0.231. On to A47C U52C, for which the self-cleavage was 0.376. A45G U55C: the self-cleavage came out at 0.124.

For the variant A45G U55G, the self-cleavage was found to be 0. For A47C C66U, the self-cleavage was 0.155. Regarding A47C C66G, the self-cleavage is 0.17. For the variant C46G A71U, the self-cleavage came to 0.211.

Consider A45U A61U, for which the self-cleavage came to 0.122. Regarding A45U A61C, the self-cleavage is 0.0246. As to A47C G57C, the self-cleavage was determined as 0.0853.

Turning to A47C G57U, the self-cleavage was found to be 0.275. In the case of A47C U58A, the self-cleavage was 0.316.

Take C46G G56A: the self-cleavage is 0.127. With C46G G56U the figure was 0.173; with C46G G56C, 0.123. As for C46A G68U, the self-cleavage was found to be 0.137. Regarding C46U A64U, the self-cleavage is 0.198. In the case of A47G C66U, the self-cleavage came out at 0.239.

Consider C46A U55A, for which the self-cleavage is 0.204.

Consider C46U U62A, for which the self-cleavage worked out at 0.148. With A45U U60G the figure was 0.188; with A45U U60A, 0.147. The result for C46A U67C reads 0.11; that for C46A U67G, 0.142. Regarding A47C C65U, the self-cleavage amounted to 0.219.

As to C46A G56C, the self-cleavage worked out at 0.122. In the case of C46G C65G, the self-cleavage came to 0.078. Take A47C A71U: the self-cleavage stood at 0.147. The result for A47C A71G reads 0.344; that for A45U C50U, 0.123. For C46U U58G, the self-cleavage was 0.0629. Regarding A45U A49U, the self-cleavage is 0.17. A45G G56U: the self-cleavage stood at 0.131. For the variant C46U G54C, the self-cleavage came to 0.149. The result for A47C C50U reads 0.303; that for C46A U63G, 0.092.

With A45U G57U, the self-cleavage is 0.166. In the case of A47C A64G, the self-cleavage was determined as 0.265. For the variant A47C A64C, the self-cleavage turned out to be 0.233. Take A45U G51U: the self-cleavage worked out at 0.209. As for C46U G56U, the self-cleavage stood at 0.0878.

For A45U U62C, the self-cleavage was 0.127.
